Laboratory results reported in PMC10201434, “The DNA replication initiation protein DnaD recognises a specific strand of the Bacillus subtilis chromosome origin” (Nucleic Acids Research, 2021).
Changes are numbered by the printed parent chain.

T1: DnaD (Bacillus subtilis 168CA, UniProt P39787 1-232)
T1 sequence: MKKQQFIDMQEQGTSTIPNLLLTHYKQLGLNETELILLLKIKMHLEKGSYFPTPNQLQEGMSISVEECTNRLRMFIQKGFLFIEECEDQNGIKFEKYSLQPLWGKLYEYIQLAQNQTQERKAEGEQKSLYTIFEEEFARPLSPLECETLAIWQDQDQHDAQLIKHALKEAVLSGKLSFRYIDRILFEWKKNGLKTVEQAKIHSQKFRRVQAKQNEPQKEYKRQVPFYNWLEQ

T2: DnaD1-224 (Bacillus subtilis 168CA, UniProt P39787 1-224)
T2 sequence: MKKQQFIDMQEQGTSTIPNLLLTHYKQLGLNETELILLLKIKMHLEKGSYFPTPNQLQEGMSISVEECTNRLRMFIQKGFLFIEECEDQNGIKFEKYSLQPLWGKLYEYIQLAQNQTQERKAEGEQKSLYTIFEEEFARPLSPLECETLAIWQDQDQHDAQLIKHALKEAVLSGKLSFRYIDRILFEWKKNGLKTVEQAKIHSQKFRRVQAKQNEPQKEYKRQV

T3: DnaD1-205 (Bacillus subtilis 168CA, UniProt P39787 1-205)
T3 sequence: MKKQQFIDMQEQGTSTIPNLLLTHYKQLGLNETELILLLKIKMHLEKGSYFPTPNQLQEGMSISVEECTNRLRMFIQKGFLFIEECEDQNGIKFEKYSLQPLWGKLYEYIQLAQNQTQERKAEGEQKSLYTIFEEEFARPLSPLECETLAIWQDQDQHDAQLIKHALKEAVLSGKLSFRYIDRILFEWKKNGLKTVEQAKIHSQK

T4: DnaD F6A (Bacillus subtilis 168CA, UniProt P39787 1-232, F6A)
T4 sequence: T1 sequence with F6A

T5: DnaD L22A (Bacillus subtilis 168CA, UniProt P39787 1-232, L22A)
T5 sequence: T1 sequence with L22A

B1: DnaD^1-205 (truncation lacking the entire C-terminal tail) (domain or fragment, Bacillus subtilis, UniProt P39787 1-205, looked up)
chain: T3 sequence
notes: DnaD, Bacillus subtilis 168CA, residues 1-205; variant lacking the entire DnaD^CTT; made from pSF17; source: E. coli BL21(DE3)-pLysS, purified (HisTrap, His14-SUMO tag digested, second HisTrap flow-through)
B2: DnaD^1-224 (truncation lacking the DnaB interaction region, the last eight residues) (domain or fragment, Bacillus subtilis, UniProt P39787 1-224, looked up)
chain: T2 sequence
notes: DnaD, Bacillus subtilis 168CA, residues 1-224; variant lacking the last eight amino acid residues of the DnaD^CTT; made from pSF17; source: E. coli BL21(DE3)-pLysS, purified (HisTrap, His14-SUMO tag digested, second HisTrap flow-through)

What was measured:
DnaD = target: T1, DnaD; assay: fluorescence polarisation; FP: 10 mM HEPES-KOH pH 7.5, 1 mM Mg acetate, 100 mM K glutamate, 20 C, 1.875 nM DNA, DnaD up to 500 nM, 10 min; Bpa crosslinking conditions not in material; conditions: protein: recombinant; tags: His14-SUMO tag removed; chain copies: 4; label: fluorescein 5'
[1] = target: the molecule itself; assay: SEC-MALS; 20°C; 40 mM Tris-HCl pH 8, 500 mM NaCl, 1 mM EDTA, 20 mM imidazole, 2.5% v/v glycerol; 100 μl injected
DnaD1-224 = target: T2, DnaD1-224; assay: fluorescence polarisation; FP: 10 mM HEPES-KOH pH 7.5, 1 mM Mg acetate, 100 mM K glutamate, 20 C, 1.875 nM DNA, DnaD up to 500 nM, 10 min; Bpa crosslinking conditions not in material; conditions: protein: recombinant; tags: His14-SUMO tag removed; chain copies: 4; label: fluorescein 5'
DnaD1-205 = target: T3, DnaD1-205; assay: as above; conditions: protein: recombinant; tags: His14-SUMO tag removed; chain copies: 4; label: fluorescein 5'
DnaD F6A = target: T4, DnaD F6A; assay: as above; conditions: protein: recombinant; tags: His14-SUMO tag removed; chain copies: 2; label: fluorescein 5'
DnaD L22A = target: T5, DnaD L22A; assay: as above; conditions: protein: recombinant; tags: His14-SUMO tag removed; label: fluorescein 5'
[2] = target: the molecule itself; assay: SEC; Superdex 200 Increase 10/300GL, 4°C; 40 mM Tris-HCl pH 8, 500 mM NaCl, 1 mM EDTA, 20 mM imidazole; 500 μl samples

Binder | binding result (DnaD) | further results
CTCCTCCCCCTCCTCCCC (ssDNA) [TnnT spacing (oCW1493)] | binds | –
CTCCTCCCTCCTCCCCCC (ssDNA) [TnnT spacing (oCW1495)] | binds | –
CTCCTTCCTCCCCCCCCC (ssDNA) [TnnT juxtaposed (oCW1498)] | binds | –
GTATTACCGCCTTTGAGTGA (ssDNA) [ssDNA 2 (oCW1124)] | binds | –
CTCCTCTCCTCCCCCCCC (ssDNA) [TnnT spacing (oCW1497)] | binds | –
CTACTATTACTTCTACTA (ssDNA) [DRE (oCW1039)] | binds | –
CTCCTCCCCCCTCCTCCC (ssDNA) [TnnT spacing (oCW1492)] | binds | –
B1 | – | stoichiometry N [1]: 4
CTCCTCCTCCTCCCCCCC (ssDNA) [TnnT spacing (oCW1496)] | binds | –
TTTTTTTTTTTTTTTTTTTTTTTTTTTTTTTTTTTTTTTT (ssDNA) [polyT(40) (oCW837)] | binds | binding result (DnaD1-224): binds; binding result (DnaD1-205): no binding
TTTTTTTTTT (ssDNA) [polyT(10) (oCW834)] | no binding | –
CTCCTCCCCCCCCTCCTC (ssDNA) [polyC with two TnnT (oCW1128)] | binds | binding result (DnaD F6A): no binding; binding result (DnaD L22A): no binding
B2 | – | stoichiometry N [2]: 4
CTCCTCCCCCCCTCCTCC (ssDNA) [TnnT spacing (oCW1491)] | binds | –
CTCCTCCCCTCCTCCCCC (ssDNA) [TnnT spacing (oCW1494)] | binds | –
TCACTCAAAGGCGGTAATAC (ssDNA) [ssDNA 1 (oCW1036)] | binds | –
TTTTTTTTTTTTTTT (ssDNA) [polyT(15) (oCW1029)] | binds | –
